In patent publication US20100255006A1 (Takeda / Millennium, published 2010):

How the values were obtained:
[1] = molecular target: caspase-1 as expressed in the IL-1β secretion assays (UniProt P29466); assay: cell-based or functional assay
[2] = molecular target: CARD-5 (ASC) as expressed in the NF-kB and IL-1β secretion assays (UniProt Q9ULZ3 1-195); assay: cell-based or functional assay
[3] = molecular target: T1, CARD of caspase-1 (mammalian two-hybrid construct) (UniProt P29466 1-91); assay: mammalian two-hybrid in 293T cells, pFR-Luc firefly reporter
T1 construct: domain: CARD; also called the CARD of caspase-1; not shown: two-hybrid fusion partner from a pCMV/AD or pCMV/BD plasmid
T1 sequence (looked up): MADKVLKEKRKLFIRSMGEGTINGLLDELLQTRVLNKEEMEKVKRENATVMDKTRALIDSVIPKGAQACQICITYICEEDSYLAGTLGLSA
Description: CARD-5 is a relatively small protein containing an N-terminal PYRIN domain and a C-terminal CARD domain (see, e.g., Masumoto et al. (1999) J. Biol. Chem. 274:33835-38). To identify whether the CARD domain of a CARD-containing protein interacted with the CARD of CARD-5, mammalian two-hybrid analysis was carried out using the CARD domains of 22 CARD-containing proteins (FIG. 13A). Mammalian two-hybrid assays were performed as described by Wang et al. (2001) J. Biol. Chem. 276:21405-21409. 293T cells were transfected with pCMV/AD and pCMVIBD plasmids, pFR-Luc firefly reporter (Stratagene), and pRL-TK Renilla reporter (Promega).

## CARD-5 (ASC) as expressed in the NF-kB and IL-1β secretion assays (from UniProt Q9ULZ3 1-195)
[1]
  secreted IL-1β (ELISA of supernatants of COS-7L cells co-transfected with mouse pro-IL-1β): 150 to 400 pg/mL

B1: full-length PYRIN-8 (PYRIN-8-FL, residues 1-1061 of SEQ ID NO:18) with a C-terminal FLAG epitope (other, not shown: small tags and cut ends)
chain: MLRTAGRDGLCRLSTYLEELEAVELKKFKLYLGTATELGEGKIPWGSMEKAGPLEMAQLLITHFGPEEAWRLALSTFERINRKDLWERGQREDLVRDTPPGGPSSLGNQSTCLLEVSLVTPRKDPQETYRDYVRRKFRLMEDRNARLGECVNLSHRYTRLLLVKEHSNPMQVQQQLLDTGRGHARTVGHQASPIKIETLFEPDEERPEPPRTVVMQGAAGIGKSMLAHKVMLDWADGKLFQGRFDYLFYINCREMNQSATECSMQDLIFSCWPEPSAPLQELIRVPERLLFIIDGFDELKPSFHDPQGPWCLCWEEKRPTELLLNSLIRKKLLPELSLLITTRPTALEKLHRLLEHPRHVEILGFSEAERKEYFYKYFHNAEQAGQVFNYVRDNEPLFTMCFVPLVCWVVCTCLQQQLEGGGLLRQTSRTTTAVYMLYLLSLMQPKPGAPRLQPPPNQRGLCSLAADGLWNQKILFEEQDLRKHGLDGEDVSAFLNMNIFQKDINCERYYSFIHLSFQEFFAAMYYILDEGEGGAGPDQDVTRLLTEYAFSERSFLALTSRFLFGLLNEETRSHLEKSLCWKVSPHIKMDLLQWIQSKAQSDGSTLQQGSLEFFSCLYEIQEEEFIQQALSHFQVIVVSNIASKMEHMVSSFCLKRCRSAQVLHLYGATYSADGEDRARCSAGAHTLLVQLPERTVLLDAYSEHLAAALCTNPNLIELSLYRNALGSRGVKLLCQGLRHPNCKLQNLRLKRCRISSSACEDLSAALIANKNLTRMDLSGNGVGFPGMMLLCEGLRHPQCRLQMIQLRKCQLESGACQEMASVLGTNPHLVELDLTGNALEDLGLRLLCQGLRHPVCRLRTLWLKICRLTAAACDELASTLSVNQSLRELDLSLNELGDLGVLLLCEGLRHPTCKLQTLRLGICRLGSAACEGLSVVLQANHNLRELDLSFNDLGDWGLWLLAEGLQHPACRLQKLWLDSCGLTAKACENLYFTLGINQTLTDLYLTNNALGDTGVRLLCKRLSHPGCKLRVLWLFGMDLNKMTHSRLAALRVTKPYLDIGC
[2]
  NF-kB activity (relative luciferase activity, pNF-kB-Luc reporter in 293T cells): 150 fold

B2: CARD of CARD-5 (mammalian two-hybrid construct) (other, UniProt Q9ULZ3 107-195, looked up)
chain: AAKPGLHFIDQHRAALIARVTNVEWLLDALYGKVLTDEQYQAVRAEPTNPSKMRKLFSFTPAWNWTCKDLLLQALRESQSYLVEDLERS
notes: domain: CARD; also called CARD domain of CARD-5; the CARD of CARD-5 (ASC); not shown: two-hybrid fusion partner from a pCMV/AD or pCMV/BD plasmid
[3]
  fold activation of luciferase activity (mammalian two-hybrid): 24 fold
